Measurements: publication PMC6137059

Molecular target: TcpK (Clostridium perfringens (plasmid pCW3), UniProt Q1PLI2 1-102)
Test: fluorescence polarization; SPR: 10 mM HEPES pH 7.4, 200 mM NaCl, 3 mM EDTA, 0.05% Tween 20, 20 C; […]
Settings: protein: recombinant; tags: N-terminal His6-TEV, cleaved; chain copies: 2; label: 5' Alexa488; blunt

B1: oriTmin23 Alexa488 (dsDNA)
DNA 1: AAGGAACTTTACAGGGAACTTTA
DNA 2: TAAAGTTCCCTGTAAAGTTCCTT
Binder B1 has a Kd of 590 nM.
